Experimental findings from PMC6170153, “Structures reveal opening of the store-operated calcium channel Orai” (eLife, 2018) are described below.

Series [1] concerns the molecule itself. As to the kind of experiment: crystal structure; H206A Orai_(cryst), space group I4_(1), 6.7 Å, 24 subunits (four channels) in the asymmetric unit, 24-fold NCS averaging; crystals grown in 36-38% PEG400, 500 mM NaCl, 100 mM Tris-HCl pH 9.0.
Series [2] concerns the molecule itself. The series can be described thus: crystal structure; K163W Orai_(cryst), space group I4_(1), 6.1 Å, MIRAS, 24-fold NCS averaging; crystals grown in 26-28% PEG 400, 150 mM NaCl, 100 mM HEPES pH 7.5.
Series [3] deals with the molecule itself. As to the kind of experiment: crystal structure; WT Orai_(cryst), space group I4_(1), 6.9 Å, MR-SAD, 24-fold NCS averaging; crystals grown in 32-35% PEG 400, 0.1 M potassium phosphate pH 7.5.

B1: H206A Orai_(cryst) (natural protein, Drosophila melanogaster, UniProt Q9U6B8 133-341, looked up)
chain: MSQSGEDLHSPTYLSWRKLQLSRAKLKASSKTSALLSGFAMVAMVEVQLDHDTNVPPGMLIAFAICTTLLVAVAMLALMISTCILPNIETVSNLHSISLVHESPHERLHWYIETAWAFSTLLGLILFLLEIAILCWVKFYDLSPPAAWSATVVLIPVMIIFMAFAIHFYRSLVSHKYEVTVSGIRELEMLKEQMEQDHLEHHNNIRNNG
notes: Hexameric channel; The model holds residues 148-327 without 181-191 and 220-239; also called open conformation
As usually defined, the stoichiometry N is a count of units in the complex or per binding partner. Consider B1, for which the “stoichiometry N” value in series [1] amounted to 6.

B2: K163W Orai_(cryst) (natural protein, Drosophila melanogaster, UniProt Q9U6B8 133-341, looked up)
chain: MSQSGEDLHSPTYLSWRKLQLSRAKLKASSWTSALLSGFAMVAMVEVQLDHDTNVPPGMLIAFAICTTLLVAVHMLALMISTCILPNIETVSNLHSISLVHESPHERLHWYIETAWAFSTLLGLILFLLEIAILCWVKFYDLSPPAAWSATVVLIPVMIIFMAFAIHFYRSLVSHKYEVTVSGIRELEMLKEQMEQDHLEHHNNIRNNG
notes: Hexameric channel, solved in two crystal forms (I4_(1) and P4_(2)2_(1)2); also called K163W mutant
In the case of B2, in series [2], the “stoichiometry N” value turned out to be 6.

B3: WT Orai_(cryst) (natural protein, Drosophila melanogaster, UniProt Q9U6B8 133-341, looked up)
chain: MSQSGEDLHSPTYLSWRKLQLSRAKLKASSKTSALLSGFAMVAMVEVQLDHDTNVPPGMLIAFAICTTLLVAVHMLALMISTCILPNIETVSNLHSISLVHESPHERLHWYIETAWAFSTLLGLILFLLEIAILCWVKFYDLSPPAAWSATVVLIPVMIIFMAFAIHFYRSLVSHKYEVTVSGIRELEMLKEQMEQDHLEHHNNIRNNG
notes: Drosophila melanogaster Orai, amino acids 133-341, with C224S and C283T (made to improve stability); wild-type Pro276 and Pro277; 24 subunits in four channels in the asymmetric unit (24-fold NCS), which makes six a channel; The model holds residues 148-327 without 181-191 and 220-239; also called wild-type (WT) Orai_(cryst); unlatched-closed conformation
Consider B3, for which the binding result in series [3] is “binds”.
